Results from patent US6998240B2, “Screen for selective inhibitors or activators of Smad protein function” (Wisconsin Alumni Research Foundation, priority 2001, dated 2006).
Each block holds one substance with its values, some of them ahead of it. No end group written: not given here.

Experiments:
[1] = molecular target: T1, Smad3-P (Homo sapiens, UniProt P84022); assay: HTRF assay of FAST / Jun Smad interaction motif peptide binding to Smad3-P
T1 construct: Smad3; 1–425; pBlueBac; His; made in house; host or cells: Sf9 insect cells (baculovirus), co-infected with virus for human Alk5 T204D
Description: The HTRF assay for detecting Smad protein interactions was used to quantify binding between the FAST Smad interaction motif and purified Smad 3 (phosphorylated). The indicated amounts of peptide or peptide aptamer were added as competitive inhibitors.
All three assays use a Eu-chelate α-His epitope tag antibody as the donor. The antibody recognizes the hexahistidine epitope tag on the Smad proteins produced in the baculovirus expression system described above. […] The peptides are synthesized to comprise the Smad interaction domain motif from human FAST or c-Jun (FIG. 3).

[2] = molecular target: phosphorylated Smad2 (His-tagged, full length, from Sf9 cells co-infected with Alk5 T204D virus) (UniProt Q15796); assay: HTRF competition, biotin-FAST on Smad2-P, inhibitor at 50 µM
[3] = molecular target: phosphorylated Smad2 (His-tagged, full length, from Sf9 cells co-infected with Alk5 T204D virus) (UniProt Q15796); assay: HTRF competition, biotin-FAST on Smad2-P, inhibitor at 20 µM
[4] = molecular target: T2, Smad2-P (Homo sapiens, UniProt Q15796); assay: HTRF assay of biotin-FAST peptide binding to Smad2-P (competition); details: for Average Normalized Counts / Percent of Control (minus Background): Biotin-FAST binding to Smad2-P
T2 construct: Smad2; 1–467; pBlueBac; His; made in house; host or cells: Sf9 insect cells (baculovirus), co-infected with virus for membrane-targeted human Alk5 T204D
Excerpt: To establish HTRF assays for Smad protein interactions, we have used reagents from Wallac-Perkin Elmer and Packard that include Europium-cryptate coupled to α-His epitope tag antibody, α-GST antibody or Streptavidin. As acceptor fluorophores we have used allophycocyanin (Packard's XL665) coupled to Streptavidin or direct labeling of GST-fusion protein with IC5 (Dojindo). Reagents are mixed in a 50 microliter volume in the wells of a 384 Black non-treated microwell plate (Corning) and HTRF detected in a Wallac Victor V multimode plate reader. The reader detects emission at 615 nm from the Europium chelate donor and at 665 nm from the APC or IC5 acceptor. Background, cross-talk and high FRET wells can be indicated on the plate map to allow the machine to compute a normalized value as a ratio Rn=(ET/D) Dmax where ET=A−BI−(C×D). • A—Fluorescence at 665 nm • BI—Blank (buffer only) at 665 nm • D—Fluorescence at 615 nm • C—Cross-talk correction value calculated from wells containing only donor fluorophore • (from “Quench Correction for LANCE TR-FRET” by Perkin-Elmer Wallace)
Over the past several months we have developed three HTRF assays for Smad binding interactions. All three assays use a Eu-chelate α-His epitope tag antibody as the donor. The antibody recognizes the hexahistidine epitope tag on the Smad proteins produced in the baculovirus expression system described above. As acceptors, we have used Streptavidin conjugated to allophycocyanin (Packard) that binds to biotinylated peptides. The peptides are synthesized to comprise the Smad interaction domain motif from human FAST or c-Jun (FIG. 3). The FAST 24-mer amino acid sequence is based on the homology between FAST, Mixer and Milk reported by Germain and colleagues (Germain, S., et al., supra, 2000). The24-mer C-JUN sequence is based on studies using deletions and gene fragments to define the Smad interaction motif (Zhang, Y., et al., supra, 1998; Liberati, N. T. et al., Proc. Natl. Acad. Sci. USA 96:4844–9, 1999). We also have developed an HTRF assay using IC5-GST-CBP, a fusion protein comprising the Smad interaction domain motif from CBP (a generous gift of Dr. Yigong Shi, Princeton University).
The assays are done in a 50 μl volume in the well of a 384-well plate. The assay buffer, as recommended by Packard for their HTRF reagents is 50 mM K-Hepes pH 7.0, 400 mM KF and 0.1% BSA. The high concentration of KF is recommended for the Eu(K) reagents from Packard. […] We have also optimized through many titrations the amount of Smad protein (220 ng/well, ˜4 pmoles per well of monomer), the concentration of biotinylated peptide (1 uMolar for FAST and C-JUN), the amount of Eu-anti-His tag antibody (36 ng/well) and the amount of Streptactin-APC (0.5 μg/well).
We used the FAST-SmadP HTRF assay described above. […] After 1 hr at room temperature, Streptavidin-APC was added to each well and 30 minutes later the fluorescence emissions at 615 nm and 665 nm were read in a PE-Wallac Victor V.

[5] = molecular target: phosphorylated Smad2 (His-tagged, full length, from Sf9 cells co-infected with Alk5 T204D virus) (UniProt Q15796); assay: HTRF competition, biotin-FAST on Smad2-P, inhibitor at 40 µM
[6] = molecular target: phosphorylated Smad2 (His-tagged, full length, from Sf9 cells co-infected with Alk5 T204D virus) (UniProt Q15796); assay: HTRF competition against biotinylated FAST peptide
[7] = molecular target: IC5-labelled GST-CBP fusion protein [GST: P08515]; assay: HTRF, Eu-anti-GST donor plus GST-CBP-IC5 acceptor, well B07
[8] = molecular target: IC5-labelled GST-CBP fusion protein [GST: P08515]; assay: HTRF, Eu-anti-GST donor plus GST-CBP-IC5 acceptor, well B08
[9] = molecular target: Smad4 (Strep-tagged, full length) (UniProt Q13485); assay: HTRF, well D19 Smad4
Smad4 (Strep-tagged, full length), sequence (Q13485 whole entry): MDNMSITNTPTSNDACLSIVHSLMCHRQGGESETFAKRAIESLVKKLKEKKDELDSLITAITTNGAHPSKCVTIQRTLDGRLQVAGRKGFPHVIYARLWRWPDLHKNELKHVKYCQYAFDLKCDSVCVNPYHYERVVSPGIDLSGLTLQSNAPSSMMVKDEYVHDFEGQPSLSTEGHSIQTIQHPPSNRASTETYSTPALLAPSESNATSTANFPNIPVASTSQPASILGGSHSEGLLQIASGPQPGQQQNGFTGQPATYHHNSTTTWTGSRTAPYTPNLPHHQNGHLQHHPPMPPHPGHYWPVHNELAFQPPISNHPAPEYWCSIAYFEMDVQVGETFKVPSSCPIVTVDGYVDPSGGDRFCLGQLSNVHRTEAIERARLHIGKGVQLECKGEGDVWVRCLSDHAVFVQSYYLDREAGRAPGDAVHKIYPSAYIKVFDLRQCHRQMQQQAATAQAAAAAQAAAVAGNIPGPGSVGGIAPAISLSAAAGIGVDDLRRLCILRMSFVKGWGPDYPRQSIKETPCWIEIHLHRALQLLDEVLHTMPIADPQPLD

[10] = molecular target: phosphorylated Smad3 (His-tagged, full length) (UniProt P84022); assay: HTRF, well D16 Smad3P
phosphorylated Smad3 (His-tagged, full length), sequence (P84022 whole entry): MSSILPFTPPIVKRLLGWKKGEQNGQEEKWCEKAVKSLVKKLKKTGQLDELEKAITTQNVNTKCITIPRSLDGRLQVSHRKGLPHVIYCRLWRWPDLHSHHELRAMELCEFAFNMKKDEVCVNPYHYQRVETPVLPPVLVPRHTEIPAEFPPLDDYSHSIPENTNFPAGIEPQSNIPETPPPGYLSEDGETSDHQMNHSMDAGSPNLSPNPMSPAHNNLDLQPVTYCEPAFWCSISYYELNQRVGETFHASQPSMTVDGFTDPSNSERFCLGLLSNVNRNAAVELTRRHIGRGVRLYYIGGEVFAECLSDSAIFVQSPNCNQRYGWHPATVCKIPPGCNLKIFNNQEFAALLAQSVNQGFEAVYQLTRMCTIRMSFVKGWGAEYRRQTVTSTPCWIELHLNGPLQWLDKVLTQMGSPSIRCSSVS

[11] = molecular target: unphosphorylated Smad2 (His-tagged, full length) (UniProt Q15796); assay: HTRF, well D12 Smad2
[12] = molecular target: phosphorylated Smad2 (His-tagged, full length, from Sf9 cells co-infected with Alk5 T204D virus) (UniProt Q15796); assay: HTRF, IC5-GST-CBP binding to Smad2-P, no inhibitor
[13] = molecular target: phosphorylated Smad3 (His-tagged, full length) (UniProt P84022); assay: HTRF, well D15 Smad3P
[14] = molecular target: phosphorylated Smad2 (His-tagged, full length, from Sf9 cells co-infected with Alk5 T204D virus) (UniProt Q15796); assay: HTRF, well D05 Smad2P
[15] = molecular target: Smad4 (Strep-tagged, full length) (UniProt Q13485); assay: HTRF, well D18 Smad4
[16] = molecular target: unphosphorylated Smad2 (His-tagged, full length) (UniProt Q15796); assay: HTRF, well D14 Smad2
[17] = molecular target: phosphorylated Smad2 (His-tagged, full length, from Sf9 cells co-infected with Alk5 T204D virus) (UniProt Q15796); assay: HTRF, well D09 Smad2P
[18] = molecular target: Smad4 (Strep-tagged, full length) (UniProt Q13485); assay: HTRF, well D20 Smad4
[19] = molecular target: unphosphorylated Smad2 (His-tagged, full length) (UniProt Q15796); assay: HTRF, well D11 Smad2 (No Smad well: 260)
[20] = molecular target: unphosphorylated Smad2 (His-tagged, full length) (UniProt Q15796); assay: HTRF, well D13 Smad2
[21] = molecular target: phosphorylated Smad2 (His-tagged, full length, from Sf9 cells co-infected with Alk5 T204D virus) (UniProt Q15796); assay: HTRF, well D10 Smad2P with unlabelled GST-CBP competitor added after equilibrium
[22] = molecular target: Smad4 (Strep-tagged, full length) (UniProt Q13485); assay: HTRF, well D17 Smad4
[23] = molecular target: phosphorylated Smad2 (His-tagged, full length, from Sf9 cells co-infected with Alk5 T204D virus) (UniProt Q15796); assay: HTRF, well D06 Smad2P with unlabelled GST-CBP competitor added after equilibrium

Substance: C-JUN: biotinylated 24-mer c-Jun Smad interaction motif peptide, HTRF ligand (LKQKVMNHVNSGCQLMLTQQLQTF; also: biotinylated, site not given here)
- time for binding reaction to reach equilibrium ([1]; 1 μM biotinylated peptide): about 90 minutes

Substance: hFAST-24mer PP>AA peptide (from UniProt O75593 327-350)
- Average Normalized Counts [2]: 1860 counts
- Average Normalized Counts [3]: 1920 counts

Substance: JUN 24 mer: 24-mer peptide of the Smad interaction motif from c-Jun (LKQKVMNHVNSGCQLMLTQQLQTF)
- competition for Biotin-FAST binding to Smad-2P (in words) [4]: inability
- Average Normalized Counts ([4]; 20 μM inhibitor peptide): 1984
- Percent of Control (minus Background) ([4]; 20 μM inhibitor peptide): 106%
- Average Normalized Counts ([4]; 40 μM inhibitor peptide): 1964
- Percent of Control (minus Background) ([4]; 40 μM inhibitor peptide): 105%

Substance: Europium-cryptate αGST antibody (Packard)
- Emission 665 [7]: 5170 counts
- Normalized Counts [7]: 6800 counts
- Emission 665 [8]: 9450 counts
- Normalized Counts [8]: 9110 counts

Substance: GST-trx-FAST aptamer with two amino acids deleted from the C-terminus of the FAST SIM (from UniProt O75593 327-348) (designed binder)
- fold higher IC50 than GST-trx-FAST [6]: 10 fold

Substance: hFAST-13mer peptide (from UniProt O75593 331-343)
- Average Normalized Counts [2]: 1980 counts
- Percent of Control (minus Background) [2]: 106%
- Average Normalized Counts [3]: 2020 counts
- Percent of Control (minus Background) [3]: 108%

Substance: IC5-labelled GST-CBP fusion protein (from UniProt P08515 1-218)
- Normalized Counts [9]: 252 counts
- Normalized Counts [10]: 683 counts
- Normalized Counts [11]: 315 counts
- Average Normalized Counts [12]: 751 counts
- Percent of Control (minus Background) [12]: 100%
- Normalized Counts [13]: 665 counts
- Normalized Counts [14]: 593 counts
- Normalized Counts [15]: 206 counts
- Normalized Counts [16]: 327 counts
- Normalized Counts [17]: 617 counts
- Normalized Counts [18]: 150 counts
- Normalized Counts [19]: 334 counts
- Normalized Counts [20]: 311 counts
- Normalized Counts [21]: 353 counts
- Normalized Counts [22]: 149 counts
- Normalized Counts [23]: 322 counts

Next, values leading:

- effect on binding (in words) ([4]; 8 μg/50 ul): very little effect
- competitive inhibition of FAST Smad interaction motif binding to Smad 3 (phosphorylated) (in words) [1]: did not interfere with binding
Substance: GST-trx: 35 kd GST-trx fusion protein, scaffold without SIM insert [reference compound]

- Average Normalized Counts [5]: 1960 counts
- Percent of Control (minus Background) [5]: 105%
- Average Normalized Counts [3]: 1980 counts
- Percent of Control (minus Background) [3]: 106%
Substance: cJUN-24mer peptide (unlabelled) (from UniProt P05412 308-331)

- fold higher IC50 than GST-trx-FAST [6]: 10 fold
Substance: GST-trx-FAST aptamer with two amino acids deleted from the N-terminus of the FAST SIM (from UniProt O75593 329-350) (designed binder)
